Where a chain is given by its changes, count along the chain named.
Key:
[1] = biological target: T1, soluble baculovirus produced human ICAM-R (Homo sapiens, UniProt P32942); test: ELISA binding of recombinant ICR-1.1 antibodies
T1 sequence (P32942 30-485 limits assumed): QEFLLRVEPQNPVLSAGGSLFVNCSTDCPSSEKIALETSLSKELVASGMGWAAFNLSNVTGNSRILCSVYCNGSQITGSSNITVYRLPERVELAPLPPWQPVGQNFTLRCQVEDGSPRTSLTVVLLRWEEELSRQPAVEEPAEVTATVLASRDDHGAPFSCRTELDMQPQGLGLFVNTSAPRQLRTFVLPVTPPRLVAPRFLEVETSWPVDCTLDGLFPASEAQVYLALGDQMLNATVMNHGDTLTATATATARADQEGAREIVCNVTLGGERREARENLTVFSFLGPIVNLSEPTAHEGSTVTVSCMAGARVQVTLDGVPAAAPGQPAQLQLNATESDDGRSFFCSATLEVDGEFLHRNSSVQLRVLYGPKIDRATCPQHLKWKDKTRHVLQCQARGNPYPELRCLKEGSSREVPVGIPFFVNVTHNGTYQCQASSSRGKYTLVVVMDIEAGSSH

SKW3 cells = test: Adhesion of PMA-activated SKW3 cells to plate-bound protein; type: cell-based, human; settings: PMA-treated cells
Procedure: The partially purified shICAM-R protein was assayed for binding to SKW3 cells that were pretreated with phorbol ester as described in Example 7 to activate LFA-1-dependent adhesion. The ICAM-R protein was coated onto 96-well Immulon 4 (Dynatech) plates after adjusting the lectin eluate to 25 mM carbonate pH 9.6 and incubated overnight at 4° C. The plates were washed two times with PBS, blocked for 30 minutes at 37° C. with 200 ul/well PBS, 1% BSA, and washed again with PBS before adding cells. SKW3 cells were washed in serum-free RPMI (Gibco), labelled with Calcein-AM (Molecular Probes), and stimulated with PMA. Cells were then added to the plates and incubated for 1 hour at 37° C. The plates were inverted in prewarmed PBS, 1% BSA and were incubated for 30 minutes. The plates were then removed and half of the contents of each well was aspriated. The plates were then scanned with a fluorescence microscope and an automated fluorescence reader.
Peak fractions from wtHis6, E37His6 and mock transfectants were concentrated about 6.5 fold using Centricon 30 (Amicon) centrifugation units. The resultant concentrates were adjusted to equal vols. (0.34 ml) using PBS-D. Control soluble ICAM-R (15 ug/ml) (Example 9) in carbonate buffer pH 9.6 or in buffer D with 40 mM imidazole were made up. […]

[2] = biological target: T2, baculovirus-produced soluble human ICAM-R (Homo sapiens, UniProt P32942); test: ELISA binding of recombinant ICR-8.1 antibodies; settings: humanized/chimeric ICR-8.1 chain combinations, human IgG4/kappa
T2 sequence (P32942 30-485 limits assumed): T1 sequence (P32942 30-485 limits assumed)

T cells = test: IL-2 production in response to anti-CD3 and ICAM-R proteins; type: cell-based, human; settings: in comparison to the HSA control
[3] = system: Human peripheral blood lymphocytes; test: Costimulation of lymphocytes by soluble ICAM-R; type: cell-based
Procedure: shICAM-R (Example 9) was assayed for the ability to costimulate human lymphocyte activation. Human peripheral blood lymphocytes (PBL) were obtained by Ficoll-Hypaque centrifugation and 2×10^5 cells per well were incubated in the presence of either media, plate bound shICAM-R, plate bound anti-CD3 (OKT3) or a combination of plate bound anti-CD3 and shICAM-R. At 17 hours and 4 days after initiation of culture cells were removed, stained with monoclonal antibodies to human lymphocyte activation antigens and analyzed by flow cytometry.

[4] = system: JY cells (LFA-1) binding to ICAM-R/IgG; test: JY cell binding to plate-bound ICAM-R/IgG chimeras; type: cell-based, human
Procedure: The binding of the lymphoblastoid cell line JY, which expresses LFA-1, to wild type ICAM-R/IgG chimera was examined in the presence and absence of LFA-1 specific antibodies or antibodies specific for either domain 1 or 2 of ICAM-R. ICAM-R chimeras were diluted to 10 μg/ml in 0.1M Na-carbonate/bicarbonate buffer pH 9.6 and used to coat triplicate wells (50 μl/well) of an Immulon 4 96-well plate (Dynatech) overnight at 4° C. Wells were washed three times in PBS and blocked with 1% BSA (in PBS) for 1 hour at 37° C. JY cells were labeled with the fluorescent dye Calcein (Moleculat Probes, Eugene, Oreg.) at 8 μg/ml at 37° C. in serum free RPMI for 20 minutes. Cells were washed with RPMI and resuspended in binding buffer (0.2% HSA in RPMI. Approximately 1×10^5 cells were added to each well containing the binding buffer with or without antibody (20 μg/ml of ICR-2.1, ICR-1.1, ICR-3.1, ICR-5.1, ICR-7.1, ICR-8.1, ICR-4.2, ICR-6.2, ICR-9.2, TS1/22 or 60.3) so that the final volume was 0.35 ml. Plates were incubated at 37° C. in the dark for 45 minutes and input fluorescence was quantitated with a fluorescence reader (Millipore) in a 96-well format. Unbound cells were removed by inverting the plate in 0.1% BSA in PBS for 20 minutes. Bound cells were quantitated by measuring the remaining fluorescence and presented as percent input minus background binding to wells coated with BSA alone.

B1: HuVK: humanized ICR-1.1 kappa chain V region (antibody, V domains shown)
VL: GARCDIQMTQSPSSLSASVGDRVTITCSASSSVSYIYWYQQKPGKAPKLLIYLTSNLASGVPSRFSGSGSGTDFTLTISSLQPEDFATYYCQQWKSIPLTFGQGTKLEIK
deficit in binding compared with murine progenitor chain, ICR-1.1 versions [1]: 2 fold

B2: wtHis6: wild type histidine tagged soluble ICAM-R extracellular domain (protein)
chain: QEFLLRVEPQNPVLSAGGSLFVNCSTDCPSSEKIALETSLSKELVASGMGWAAFNLSNVTGNSRILCSVYCNGSQITGSSNITVYGLPERVELAPLPPWQPVGQNFTLRCQVEGGSPRTSLTVVLLRWEEELSRQPAVEEPAEVTATVLASRDDHGAPFSCRTELDMQPQGLGLFVNTSAPRQLRTFVLPVTPPRLVAPRFLEVETSWPVDCTLDGLFPASEAQVYLALGDQMLNATVMNHGDTLTATATATARADQEGAREIVCNVTLGGERREARENLTVFSFLGPIVNLSEPTAHEGSTVTVSCMAGARVQVTLDGVPAAAPGQTAQLQLNATESDDGRSFFCSATLEVDGEFLHRNSSVQLRVLYGPKIDRATCPQHLKWKDKTRHVLQCQARGNPYPELRCLKEGSSREVPVGIPFFVNVTHNGTYQCQASSSRGKYTLVVVMDIEAFSSGPGHHHHHH
adhesion of SKW3 cells to plate bound protein (SKW3 cells): functions as an adhesive ligand for SKW3 cells

B3: HuVH: humanized ICR-1.1 heavy chain V region (Met48) (antibody, V domains shown)
VH: GVQSQVQLVQSGAEVKKPGASVKVSCKASGYTFTVYWMHWVRQAPGQGLEWMGYINPNTDYTEYNQRFQKRVTITADTSTSTAYMELSSLRSEDTAVYYCARWGGNSYGLDYWGQGTLVTVSS
deficit in binding compared with murine progenitor chain, ICR-1.1 versions [1]: 2-3 fold

B4: MuVHVST/MuVK: chimeric ICR-8.1, MuVHVS heavy chain with Thr28, murine VK (antibody, V domains shown)
VH: EVQLQQSGPELVKPGASVKISCKASGYTFTDCIILWVKQSHGKGLEWIGKINPYFGTTTYNLKFKGKATLTVDKSSSTAHMQLNSLTSEDSAVYYCARKEAYPDAMDYWGQGTSVTVSS
VL: DAVMTQTPLSLPVSLGDQASISCRSSQSLVHSNGDTYLHWYLQKPGQSPQLLIYKVSNRFSGVPDRFSGSGSGTDFTLKLSRVEAEDLGVYFCSQSTHVPYTFGGGTKLEIK
binding to ICAM-R (ELISA), recombinant ICR-8.1 antibodies [2]: equivalence in binding to ICAM-R

B5: miJuVH/MuVK: ICR-8.1 miHuVH (Ala60, Gln61, Gln64) heavy chain with murine VK (antibody, V domains shown)
VH: QVQLVQSGAEVKKPGASVKVSCKASGYTFTDCIILWVRQAPGQGLEWMGKINPYFGTTTYAQKFQGRVTITADTSTSTAYMELSSLRSEDTAVYYCARKEAYPDAMDYWGQGTLVTVSS
VL: B4 VL
binding to ICAM-R (ELISA), recombinant ICR-8.1 antibodies [2]: equivalence in binding to ICAM-R

B6: HuVH/MuVK: ICR-8.1 humanized VH (Ala71) with murine VK (antibody, V domains shown)
VH: B5 VH with A61N, Q62L, Q65K
VL: B4 VL
binding to ICAM-R (ELISA), recombinant ICR-8.1 antibodies [2]: equivalence in binding to ICAM-R

B7: HuVHV/MuVK: ICR-8.1 humanized VH with Thr28 and Val71, murine VK (antibody, V domains shown)
VH: B5 VH with A61N, Q62L, Q65K, A72V
VL: B4 VL
binding to ICAM-R (ELISA), recombinant ICR-8.1 antibodies [2]: equivalence in binding to ICAM-R

B8: shICAM-R: soluble human ICAM-R truncated at amino acid 457, baculovirus expressed (protein)
chain: T1 sequence (P32942 30-485 limits assumed) with R86G, D114G, P328T, G453F
IL-2 production in response to CD3 mAb (T cells): enhanced IL-2 production | adhesion of SKW3 cells to plate bound protein (SKW3 cells): demonstrated adhesion of phorbol ester-activated lymphocytes | expression of activation antigens ICAM-1, IL-2 receptor, transferrin receptor ([3]; 4 days, plate bound anti-CD3 0.5 ug/well and protein 100 ng/well, versus anti-CD3 alone): elevated levels of the activation antigens ICAM-1, IL-2 receptor and transferrin receptor | expression of activation antigens ICAM-1, IL-2 receptor, transferrin receptor ([3]; protein 100 ng/well alone, versus media alone): no increased levels of these activation antigens

B9: T38/A: ICAM-R/IgG chimera, Thr38 changed to Ala (protein)
chain: T1 sequence (P32942 30-485 limits assumed) with T38A, R86G, D114G, P328T, G453F
modifications: left off: a dimerising Fc or GST
notes: ICAM-R/IgG chimera, Thr38 changed to Ala
reduction in JY cell adhesion to variant ICAM-R/IgG chimera [4]: 70-80%

B10: L121/P: ICAM-R/IgG chimera with domain 2 mutation L121/P (protein, UniProt P32942 30-485, looked up, variant L121P)
extracellular domain: T1 sequence (P32942 30-485 limits assumed) with L121P
modifications: extracellular domain fused to IgG Fc
notes: ICAM-R/IgG chimera with domain 2 mutation L121/P
LFA-1 mediated JY cell adhesion to variant ICAM-R/IgG chimera ([4]; chimera coated at 10 μg/ml): wild type levels of LFA-1 mediated binding

From patent US20040248211A1, “ICAM-related protein” (priority 1992, published 2004)
